Target: GABARAP (UniProt O95166)
Test: GST-GABARAP pull-down from cell lysate
Conditions: reference: wild type

binding against the reference (sites S65) | binding against the reference (sites T54) | Substance
weaker |  | ORP8 (from UniProt Q9BZF1) S65A
 | weaker | ORP8 (from UniProt Q9BZF1) T54A

— PMC10501187
